Test results reported in patent US20240075105A1.

Target: the cell surface receptor (of interleukin-2) on CTLL-2 cells
Test: cell-based or functional assay

| specific bioactivity (CTLL-2 cell/MTT colorimetry) [IU/mg] | Substance |
| --- | --- |
| 2.39e+06 | recombinant human interleukin-2/serum albumin fusion protein (rhIL-2/SA, code 9333) (ligand) |
| 2.46e+06 | recombinant human serum albumin/interleukin-2 fusion protein (rHSA/IL-2, code 9222) (ligand) |
